Measured values as given in patent US20200010567A1 (NEURIMMUNE, published 2020).

Key:
[1] = molecular target: T1, (GR)15: H-C(GR)15-OH; assay: indirect ELISA, uncoupled peptide coated, antibody titrated [also D00014 FIG. 3I]
T1 construct: synthetic, not coupled to BSA; also called poly-GR DPR protein peptide
T1 peptide: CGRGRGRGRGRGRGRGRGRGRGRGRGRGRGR
Experimental: (§1) In brief, dipeptide repeat proteins were synthesized and purified by Schafer-N(Copenhagen, Denmark): (GA)₁₅: H-CHHHHHH(GA)₁₅-OH; (GP)₁₅: H-C(GP)₁₅-OH; (GR)₁₅: H-C(GR)₁₅-OH; (PA)₁₅: H-C(PA)₁₅-OH; (PR)₁₅: H—C(PR)₁₅-OH. DPR protein peptides were then conjugated via a bifunctional linker (SMCC) to bovine serum albumin (BSA). 96-well microplates (Corning Incorporated, Corning, USA) were coated with BSA-coupled or -uncoupled dipeptide repeat protein peptides at a concentration of either 5 μg/ml or 20 μg/ml in coating buffer (15 mM Na₂CO₃, 35 mM NaHCO₃, pH 9.42). Non-specific binding sites were blocked for 1 h at room temperature with PBS/0.1% Tween®-20 containing 2% BSA (Sigma-Aldrich, Buchs, Switzerland). Primary antibodies were diluted to the indicated concentrations and incubated 1 h at room temperature, followed by incubation with a donkey anti-human IgG Fcγ-specific antibody conjugated with HRP (Jackson ImmunoResearch Laboratories, Inc., West Grove, USA). Binding was determined by measurement of HRP activity in a standard colorimetric assay. EC₅₀ values were estimated by non-linear regression using GraphPad Prism software (San Diego, USA).

[2] = molecular target: T2, GA2: H-(GA)2HHHHHH-NH2; assay: indirect ELISA, His-tagged peptide coated at 50 ug/ml, antibody titrated [also D00025 FIG. 7G]
T2 peptide: H-GAGAHHHHHH-NH2
Excerpt: (§2) In brief, dipeptide repeat proteins were synthesized and purified by Schafer-N (Copenhagen, Denmark): GA₂₀: H-(GA)₂₀HHHHHH-NH₂; GA₁₀: H-(GA)₁₀HHHHHH-NH₂; GA₆: H-(GA)₆HHHHHH-NH₂; GA₅: H-(GA)₅HHHHHH-NH₂; GA₄: H-(GA)₄HHHHHH-NH₂; GA₃: H-(GA)₃HHHHHH-NH₂; GA₂: H-(GA)₂HHHHHH-NH₂; GP₂₀: H-(GP)₂₀HHHHHH-NH₂; GP₁₀: H-(GP)₁₀HHHHHH-NH₂; GP₆: H-(GP)₆HHHHHH-NH₂; GP₅: H-(GP)₅HHHHHH-NH₂; GP₄: H-(GP)₄HHHHHH-NH₂; GP₃: H-(GP)₃HHHHHH-NH₂; GP₂: H-(GP)₂HHHHHH-NH₂. GR₂₀: H-(GR)₂₀HHHHHH-NH₂; GR₁₀: H-(GR)₁₀HHHHHH-NH₂; GR₆: H-(GR)₆HHHHHH-NH₂; GR₅: H-(GR)₅HHHHHH-NH₂; GR₄: H-(GR)₄HHHHHH-NH₂; GR₃: H-(GR)₃HHHHHH-NH₂; GR₂: H-(GR)₂HHHHHH-NH₂; PA₂₀: H-(PA)₂₀HHHHHH-NH₂; PA₁₀: H-(PA)₁₀HHHHHH-NH₂; PA₆: H-(PA)₆HHHHHH-NH₂; PA₅: H-(PA)₅HHHHHH-NH₂; PA₄: H-(PA)₄HHHHHH-NH₂; PA₃: H-(PA)₃HHHHHH-NH₂; PA₂: H-(PA)₂HHHHHH-NH₂; PR₂₀: H-(PR)₂₀HHHHHH-NH₂; PR₁₀: H-(PR)₁₀HHHHHH-NH₂; PR₆: H-(PR)₆HHHHHH-NH₂; PR₅: H-(PR)₅HHHHHH-NH₂; PR₄: H-(PR)₄HHHHHH-NH₂; PR₃: H-(PR)₃HHHHHH-NH₂; PR₂: H-(PR)₂HHHHHH-NH₂. 96-well microplates (Corning Incorporated, Corning, USA) were coated with dipeptide repeat protein peptides at a concentration of 50 μg/ml in coating buffer (15 mM Na₂CO₃, 35 mM NaHCO₃, pH 9.42). Non-specific binding sites were blocked for 1 h at room temperature with PBS/0.1% Tween®-20 containing 2% BSA (Sigma-Aldrich, Buchs, Switzerland). Primary antibodies were diluted to the indicated concentrations and incubated 1 h at room temperature, followed by incubation with a donkey anti-human IgG Fcγ-specific antibody conjugated with HRP (Jackson ImmunoResearch Laboratories, Inc., West Grove, USA). Binding was determined by measurement of HRP activity in a standard colorimetric assay. EC₅₀ values were estimated by non-linear regression using GraphPad Prism software (San Diego, USA).

[3] = molecular target: T3, GA4: H-(GA)4HHHHHH-NH2; assay: as above
T3 peptide: H-GAGAGAGAHHHHHH-NH2
Excerpt: as §2

[4] = molecular target: T4, GA3: H-(GA)3HHHHHH-NH2; assay: as above
T4 peptide: H-GAGAGAHHHHHH-NH2
Excerpt: as §2

[5] = molecular target: T5, GA5: H-(GA)5HHHHHH-NH2; assay: as above
T5 peptide: H-GAGAGAGAGAHHHHHH-NH2
Excerpt: as §2

[6] = molecular target: T6, BSA-coupled (GA)15 DPR protein peptide (bovine, conjugated via a bifunctional linker (SMCC) to bovine serum albumin); assay: indirect ELISA, BSA-coupled peptide coated, antibody titrated [also D00012 FIG. 3C]
T6 construct: also called BSA-(GA)15
Experimental: as §1

T6 sequence (peptide, as listed by the source limits assumed, chain 1 of 2): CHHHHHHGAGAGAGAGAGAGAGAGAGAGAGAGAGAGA
T6 sequence (P02769 25-607 limits assumed, chain 2 of 2): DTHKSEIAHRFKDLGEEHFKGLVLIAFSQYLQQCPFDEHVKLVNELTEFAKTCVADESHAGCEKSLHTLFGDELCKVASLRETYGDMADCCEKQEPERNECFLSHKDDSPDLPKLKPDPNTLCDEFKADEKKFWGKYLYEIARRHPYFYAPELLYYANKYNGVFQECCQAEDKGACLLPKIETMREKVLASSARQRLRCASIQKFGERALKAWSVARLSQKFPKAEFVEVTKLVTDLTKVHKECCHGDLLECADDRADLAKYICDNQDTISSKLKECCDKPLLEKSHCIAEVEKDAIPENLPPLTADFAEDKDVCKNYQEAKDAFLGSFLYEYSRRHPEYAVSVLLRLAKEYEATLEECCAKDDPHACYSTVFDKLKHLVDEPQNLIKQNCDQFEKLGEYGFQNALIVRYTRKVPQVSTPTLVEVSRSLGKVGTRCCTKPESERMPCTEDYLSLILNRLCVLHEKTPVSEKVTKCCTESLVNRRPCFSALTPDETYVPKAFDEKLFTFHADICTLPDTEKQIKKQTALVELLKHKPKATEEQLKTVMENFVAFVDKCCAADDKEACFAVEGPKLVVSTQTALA

B1: NI-308.6B11 (antibody, V domains shown)
VH: EVQLVQSGAEVKRPGASVKVSCKVSGYTLTELSMHWVRQAPGKGLEWMGGFDPEDGETVYAQKFQGRVTMTEDTSTDTAYMELSSLRSEDTALYHCATYGSSWHWNEGNEGSYYFDYWGQGTLVTVSS
VL: CDIQMTQSPSSLSASVGDRVTITCQASQDISIYLNWYQQKPGKAPKLLIYDASNLETGVPSRFSGSGSGTDFTFTISGLQPEDVARYYCQQYDDLPITFGQGTRLEIK
notes: Recombinant complete human IgG1, kappa
EC50 [1]: 1.3 nM

B2: NI-308.18F7 (antibody, V domains shown)
VH: QVQLQESGPGLVKPSETLSVTCTVSGGSINDYYWNWIRQPAGKGLEWIGRIYASGTINYNPSLQSRVTMSIDTSKNQFSLDLISVSAADTAVYYCARWGQVVGDYYYGMDVWGQGTTVTVSS
VL: EIVLTQSPLSLSVTPGEPASISCKSSQSLQHTNGYNYLDWYLLKPGQSPQLLIFLTSNRASGVPDRFSGSGSGTNFTLKISRVEAEDVGVYYCMEGIQLWTFGQGTKLEIK
notes: as for B1
binding result [2]: no binding (tested: about 4x10^5 pM (last point))
binding result [3]: no binding (tested: about 4x10^5 pM (last point))
binding result [4]: no binding (tested: about 4x10^5 pM (last point))
binding result [5]: no binding (tested: about 4x10^5 pM (last point))

B3: NI-308.15O7 (antibody, V domains shown)
VH: QVQLVESGGGVVQPGRSLRLSCAASGFTFSNHAMHWVRQAPGKGLEWVAVISYDGENTYYADSIEGRFTISRDNFKNTLFLQMYSLTADDTAMYFCARGGRRGHFTSYYLDYWGQGTLVTVSS
VL: CDIQMTQSPSSLSASVGDRVTITCRASQNIDKYLNWYQQIPGKAPKLLIYAASSLHSGVPSRFSGSGSGTDFSLTISSLQPEDFAIYYCQQSYSSFRTFGQGTKLEIK
EC50 [6]: 0.41 nM
